Measurements taken from patent US20070054846A1, “Bcl-w structure and uses therefor” (priority 2002, published 2007).

Assays:
[1] = biological target: T1, BimLΔC27 (mouse, UniProt O54918-2 1-113); assay: SPR (BIAcore 2000), BimLΔC27 immobilised
T1 construct: Truncation by 27 C-terminal residues is stated, the end residue is not; Numbering (L94) is that of the BimL isoform, not of the canonical BimEL entry; Immobilised on the CM5 chip in SPR; soluble protein in GST pull-downs; also called C-terminally truncated BimL; wt BimLΔC27
T1 sequence: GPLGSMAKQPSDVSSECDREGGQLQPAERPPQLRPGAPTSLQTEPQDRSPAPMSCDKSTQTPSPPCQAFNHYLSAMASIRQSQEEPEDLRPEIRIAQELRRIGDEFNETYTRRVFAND
Method: (§1) Similar results were obtained when a corresponding mutation (L138A) was introduced into another BH3-only protein, Bmf (not shown).
(§2) Analysis of protein interactions by surface plasmon resonance was carried out on a BIAcore 2000 biosensor (BIAcore). For the immobilisation to BIAcore CM 5 sensorchips (BIAcore), wild-type or mutant Bim proteins were buffer exchanged into 20 mM Na-acetate, pH 4.5. N-hydroxysuccinimide coupling and binding analysis was done as described previously (Lackmann et al., 1997). In order to minimise mass-transport mediated effects the kinetic experiments were routinely carried out at 20 μl/min. Bcl-w binding at concentrations between 2 and 0.03 μM in running buffer (10 mM HEPES, pH 7.4, 150 mM NaCl, 3.4 mM EDTA, 0.005% Tween 20) was performed on sensorchip surfaces derivatised on parallel channels with a non-relevant protein, BimLΔC27 and BimLΔC27-L94A. The binding kinetics were derived from the sensorgrams following subtraction of baseline responses (measured on the control channel) by ‘global analysis’ using the BIA Evaluation software (vers. 3.02, BIAcore).

[2] = biological target: T2, BimLΔC27-L94A (mouse, UniProt O54918-2 1-113); assay: SPR (BIAcore 2000), BimLΔC27-L94A immobilised; Bcl-w truncated by 29 residues (Bcl-wΔC29)
T2 construct: also called Bim containing the L94 mutation; L94A mutant
T2 sequence: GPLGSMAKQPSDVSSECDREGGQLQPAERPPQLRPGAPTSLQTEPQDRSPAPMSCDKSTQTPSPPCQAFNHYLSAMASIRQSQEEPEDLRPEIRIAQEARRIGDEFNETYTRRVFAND
Method: as §1, §2

[3] = biological target: T1, BimLΔC27; assay: SPR (BIAcore 2000), global fit to a 1:1 Langmuir model. Sheet heads Bcl-w 'Immobilized' and Bim 'Analyte'; text says Bim immobilised, Bcl-w in solution
Method: (§3) FIG. 3A is a table showing the binding constants for various Bcl-w-BH3-only ligand complexes, which were determined using Biosensor experiments as described herein. FIG. 3B is a graphical representation showing the interaction kinetics of Bcl-w binding to BimLΔC27. Samples of serially diluted Bcl-w (2 μM-62.5 nM) were analysed on a BimLΔC27 sensor surface as described in Experimental Procedures. […] FIG. 3C is a graphical representation showing the interaction kinetics of Bcl-w or Bcl-wΔC29 binding to BimLΔC27 or BimLΔC27-L94A. […] Relative responses of samples between 1 μM and 62.5 nM are shown. FIG. 3D is a photographic representation of a GST pull-down assay to assess the binding capacity of Bcl-w proteins. Approximately equivalent amounts of the indicated GST-Bcl-w proteins were mixed with either soluble wt BimLΔC27 or soluble BimLΔC27-L94A. The intensity of the Bim band indicated the amount of protein that bound to Bcl-w. Molecular weight standards in kDa are indicated.
as §2, with “3.02, BIAcore). The surface of the chip was regenerated with 50 mM 1,2-diethylamine containing 0.1% Triton X100, followed by two washes with running buffer.” for “3.02, BIAcore).”

[4] = biological target: T2, BimLΔC27-L94A; assay: as above
Method: as §3
as §2, with “3.02, BIAcore). The surface of the chip was regenerated with 50 mM 1,2-diethylamine containing 0.1% Triton X100, followed by two washes with running buffer.” for “3.02, BIAcore).”

[5] = biological target: T2, BimLΔC27-L94A; assay: SPR (BIAcore 2000)
Method: as §1, §2

[6] = biological target: T2, BimLΔC27-L94A; assay: SPR (BIAcore 2000), BimLΔC27-L94A immobilised, Bcl-w in solution; full-length Bcl-w
Method: as §1, §2

[7] = biological target: T1, BimLΔC27; assay: SPR (BIAcore 2000), BimLΔC27 immobilised, Bcl-w in solution, global 1:1 Langmuir fit
Method: as §1, §2

[8] = biological target: T3, Bim (UniProt O54918-2 1-140, limits assumed); assay: not described
T3 construct: also called BH3-only protein Bim
T3 sequence (looked up): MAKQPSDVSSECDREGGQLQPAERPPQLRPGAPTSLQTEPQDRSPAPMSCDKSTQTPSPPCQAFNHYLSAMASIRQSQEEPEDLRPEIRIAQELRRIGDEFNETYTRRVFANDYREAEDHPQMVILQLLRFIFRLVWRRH

[9] = biological target: T4, FLAG Bcl-xL (full-length) (UniProt Q07817 1-233); assay: co-immunoprecipitation from 35S-labelled 293T lysates with anti-FLAG (α-F), anti-EE (α-E) and control anti-HA (α-H) [upper right gel]
T4 construct: also called FLAG-tagged full-length Bcl-xL; not shown: FLAG tag
Excerpt: FIG. 4 comprises photographic representations showing that the in vivo and in vitro binding properties of Bcl-xL resemble that of Bcl-w. FIG. 4A is a photographic representation showing that the C-terminus of Bcl-w restricts access to the binding groove in vivo. Equivalent ³⁵S-labeled 293T lysates obtained from cells co-expressing FLAG Bcl-w or Bcl-wΔC29, and EE-BimEL or BimEL-L150A, were immunoprecipitated using the anti-FLAG M2 (α-F), anti-EE (α-E) or control anti-HA (α-H) monoclonal antibodies. The immunoprecipitations were fractionated on SDS-PAGE gels. FIG. 4B is a photographic representation showing that the C-terminus of Bcl-xL restricts access to the binding groove in vivo. Co-precipitation experiments similar to those described in FIG. 4A using lysates from cells co-expressing FLAG Bcl-xL or Bcl-xLΔC24, and EE-BimL or BimL-L94A. […]
Cell culture, stable transfections into FDC-P1, transient transfections into 293T human embryonic kidney cells, metabolic labelling with ³⁵S-methionine/cysteine (NEN) and co-immunoprecipitation have been previously described (O'Connor et al., 1998, Moriishi et al., 1999; Huang et al., 1998; Wilson-Annan et al., 2003). […] The immunoprecipitates were resolved by SDS-PAGE (Novex), transferred onto nitrocellulose membranes (APB) and the proteins detected by fluorography (Amplify; APB).

[10] = biological target: T5, Bim-BH3 peptide (mouse); assay: NMR, 15N-NOESY-HSQC chemical shift changes
T5 peptide: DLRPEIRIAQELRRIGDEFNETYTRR

T4 sequence (Q07817 whole entry): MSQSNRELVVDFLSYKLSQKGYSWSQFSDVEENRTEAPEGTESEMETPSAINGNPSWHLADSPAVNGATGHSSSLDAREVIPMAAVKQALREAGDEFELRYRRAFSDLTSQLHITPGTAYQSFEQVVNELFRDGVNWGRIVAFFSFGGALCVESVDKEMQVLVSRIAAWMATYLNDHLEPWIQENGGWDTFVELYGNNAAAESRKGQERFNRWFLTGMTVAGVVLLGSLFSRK

B1: Bcl-wΔC29 (purified recombinant protein) (other)
chain: GPLGSMATPASAPDTRALVADFVGYKLRQKGYVCGAGPGEGPAADPLHQAMRAAGDEFETRFRRTFSDLAAQLHVTPGSAQQRFTQVSDELFQGGPNWGRLVAFFVFGAALCAESVNKEMEPLVGQVQEWMVAYLETRLADWIHSSGGWAEFTALYGDGALEEARRLRE
notes: Residue limits 1-164 follow from 193 aa minus 29; also called Bcl-w truncated by 29 residues at the C-terminus
[1]
  Kd: 11 nM
  fold increase in the association rate against full-length Bcl-w: 3 fold
[2]
  Kd: 13 nM
[3]
  koff: 0.0061 s⁻¹
  kon: 570000 M⁻¹ s⁻¹
[4]
  koff: 0.0028 s⁻¹
  kon: 210000 M⁻¹ s⁻¹

B2: Bcl-w (full-length, purified recombinant protein) (other)
chain: GPLGSMATPASAPDTRALVADFVGYKLRQKGYVCGAGPGEGPAADPLHQAMRAAGDEFETRFRRTFSDLAAQLHVTPGSAQQRFTQVSDELFQGGPNWGRLVAFFVFGAALCAESVNKEMEPLVGQVQEWMVAYLETRLADWIHSSGGWAEFTALYGDGALEEARRLREGNWASVRTVLTGAVALGALVTVGAFFASK
notes: Expressed as GST fusion in E. coli, released with PreScission protease; analyte in solution in the BIAcore experiments; also called full length Bcl-w; wild-type Bcl-w
[5]
  fold decrease in the association rate against BimLΔC27: 10 fold
  fold increase in the dissociation rate against BimLΔC27: 5 fold
  fold reduction of affinity against BimLΔC27: > 60 fold
[6]
  Kd: 1600 nM
[7]
  Kd: 24 nM
[3]
  koff: 0.0043 s⁻¹
  kon: 180000 M⁻¹ s⁻¹
[4]
  koff: 0.02 s⁻¹
  kon: 13000 M⁻¹ s⁻¹

B3: Bcl-w with Arg95 mutated to Ala (other)
chain: MATPASAPDTRALVADFVGYKLRQKGYVCGAGPGEGPAADPLHQAMRAAGDEFETRFRRTFSDLAAQLHVTPGSAQQRFTQVSDELFQGGPNWGALVAFFVFGAALCAESVNKEMEPLVGQVQEWMVAYLETRLADWIHSSGGWAEFTALYGDGALEEARRLREGNWASVRTVLTGAVALGALVTVGAFFASK
notes: Construct and assay not described; also called Bcl-w R95A
[8]
  binding result: no binding

B4: EE-BimL-L94A (ligand, UniProt O54918-2 1-140, looked up)
chain: MAKQPSDVSSECDREGGQLQPAERPPQLRPGAPTSLQTEPQDRSPAPMSCDKSTQTPSPPCQAFNHYLSAMASIRQSQEEPEDLRPEIRIAQEARRIGDEFNETYTRRVFANDYREAEDHPQMVILQLLRFIFRLVWRRH
notes: also called L94A mutant; not shown: EE (Glu-Glu) tag
[9]
  binding result: no binding

B5: Bcl-wΔC10 (A128E), purified, NMR sample (other)
chain: GPLGSMATPASAPDTRALVADFVGYKLRQKGYVCGAGPGEGPAADPLHQAMRAAGDEFETRFRRTFSDLAAQLHVTPGSAQQRFTQVSDELFQGGPNWGRLVAFFVFGAALCAESVNKEMEPLVGQVQEWMVEYLETRLADWIHSSGGWAEFTALYGDGALEEARRLREGNWASVRTVLTGAVALGAL
notes: Isotope-labelled (15N) protein for the NOESY-HSQC with the Bim-BH3 peptide
[10]
  binding result: binds
